Experimental data taken from patent US9266964.

How the values were obtained:
human plasma kallikrein [1] = biological target: T1, human plasma kallikrein (human, UniProt P03952 20-390; P03952 391-638); experiment: apparent inhibition constant (Ki,app) against human pKal, enzyme inhibition
T1 construct: also called pKal; human pKal
T1 sequence (P03952 20-390, chain 1 of 2): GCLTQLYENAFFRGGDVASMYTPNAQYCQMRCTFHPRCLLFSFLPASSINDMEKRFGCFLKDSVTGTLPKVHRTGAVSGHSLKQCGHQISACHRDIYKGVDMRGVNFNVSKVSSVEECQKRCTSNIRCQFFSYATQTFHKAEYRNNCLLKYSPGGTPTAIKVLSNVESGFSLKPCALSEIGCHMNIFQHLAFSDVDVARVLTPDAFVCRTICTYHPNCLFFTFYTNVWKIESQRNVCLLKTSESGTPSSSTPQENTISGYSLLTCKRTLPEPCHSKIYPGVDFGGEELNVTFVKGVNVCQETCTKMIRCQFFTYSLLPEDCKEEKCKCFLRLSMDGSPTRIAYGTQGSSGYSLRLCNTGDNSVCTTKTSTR
T1 sequence (P03952 391-638, chain 2 of 2): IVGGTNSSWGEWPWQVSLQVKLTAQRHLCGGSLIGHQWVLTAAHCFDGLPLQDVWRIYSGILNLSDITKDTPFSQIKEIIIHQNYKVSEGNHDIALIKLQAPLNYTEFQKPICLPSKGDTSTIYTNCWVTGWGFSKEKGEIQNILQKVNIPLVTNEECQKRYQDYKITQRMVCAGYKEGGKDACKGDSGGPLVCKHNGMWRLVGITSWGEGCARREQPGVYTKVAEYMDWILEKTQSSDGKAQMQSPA

human plasma kallikrein [2] = biological target: T1, human plasma kallikrein; experiment: ELISA, biotinylated plasma kallikrein coated on microtiter plate, signal divided by streptavidin background
Description: Abbreviations used: "T/B" is the ELISA signal obtained using of the "target" (biotinylated plasma kallikrein) divided by the ELISA signal of the "background" (streptavidin); both of which were coated on microtiter plates. "nd" is not determined. The symbol "q" refers to the amber suppressible stop codon (TAG), which is translated as glutamine (Q) in strains of *E. coli* such as the TG1 cells that were used to express the Fab fragments.

human plasma kallikrein [3] = biological target: T2, human plasma kallikrein (human, UniProt P03952 20-390; P03952 391-638); experiment: cell-based or functional assay
T2 sequence (P03952 20-390, chain 1 of 2): as the sequence (P03952 20-390, chain 1 of 2) above
T2 sequence (P03952 391-638, chain 2 of 2): as the sequence (P03952 391-638, chain 2 of 2) above

human plasma kallikrein [4] = biological target: T2, human plasma kallikrein; experiment: Ki,app, inhibition of human pKal enzyme activity

| Binder | Ki (human plasma kallikrein [1]) [nM] | Human pKal ELISA (T/B) (human plasma kallikrein [2]) | % inhibition at 10 nM (human plasma kallikrein [3]) [%] | Ki (human plasma kallikrein [4]) [nM] |
| --- | --- | --- | --- | --- |
| M162-A04 (Fab, V domains shown, Non-germlined Fab discovered using phage display; Printed HC runs from VH into the start of CH1; also called M162-A4; 559A-M162-A4) VH: EVQLLESGGGLVQPGGSLRLSCAASGFTFSHYIMMWVRQAPGKGLEWVSGIYSSGGITVYADSVKGRFTISRDNSKNTLYLQMNSLRAEDTAVYYCAYRRTGIPRRDAFDIWGQGTMVTVSS VL: DIQMTQSPSTLSASVGDRVTITCRASQSISSWLAWYQQKPGKAPNLLIYKASTLESGVPSRFSGSGSGTEFTLTISSLQPDDFATYYCQQYNTYWTFGQGTKVEIK | 4.8 | 11.4 ratio of ELISA signal on target to background (streptavidin) |  |  |
| M208-F10 (Fab, V domains shown, Tested as Fab; printed HC runs into CH1; amber q written Q) VH: EVQLLESGGGLVQPGGSLRLSCAASGFTFSHYLMTWVRQAPGKGLEWVSYISPSGGHTIYADSVKGRFTISRDNSKNTLYLQMNSLRAEDTAVYYCARVARGIAARSRTSYFDQWGQGTLVTVSS VL: DIQMTQSPGTLSLSPGERATLSCRTSQFVNSNYLAWYQQTPGQAPRLLIYGASSRATGIPDRFSGTGYGTDFTLTISRLEPEDYGTYYCQQSSRTPWTFGQGTRVEIK |  |  | 92.5 | 0.2 |
| M160-G12 (Fab, V domains shown, Printed HC runs from VH into the start of CH1; also called R84-D02 (as IgG)) VH: EVQLLESGGGLVQPGGSLRLSCAASGFTFSHYLMTWVRQAPGKGLEWVSYISPSGGHTIYADSVKGRFTISRDNSKNTLYLQMNSLRAEDTAVYYCARVARGIAARSRTSYFDYWGQGTLVTVSS VL: DIQMTQSPSFLSASVGDRVTITCRASQGISSYLAWYQQKPGKAPKLLIYAASTLQSGVPSRFSGSGSGTEFTLTISSLQPEDFATYYCQQLNSYPLTFGGGTKVEIK | 17 | 38.3 ratio of ELISA signal on target to background (streptavidin) |  |  |
| M208-C06 (Fab, V domains shown, Tested as Fab; printed HC runs into CH1) VH: EVQLLESGGGLVQPGGSLRLSCAASGFTFSHYLMTWVRQAPGKGLEWVSYISPSGGHTIYADSVKGRFTISRDNSKNTLYLQMNSLRAEDTAVYYCARVARGIAARSRTSFIDYWGQGTLVTVSS VL: DIQMTQSPGTLSLSPGERATLSCRTSQFVNSNYLAWYQQTPGQAPRLLIYGASSRATGIPDRFSGTGYGTDFTLTISRLEPEDYGTYYCQQSSRTPWTFGQGTRVEIK |  |  | 91.7 | 0.4 |
| M206-H08 (Fab, V domains shown, Tested as Fab; printed HC runs into CH1) VH: EVQLLESGGGLVQPGGSLRLSCAASGFTFSDYMMAWVRQAPGKGLEWVSSIVPSGGHTHYADSVKGRFTISRDNSKNTLYLQMNSLRAEDTAVYYCARVARGIAARSRTSYFDYWGQGTLVTVSS VL: DIQMTQSPGTLSLSPGERATLSCRTSQFVNSNYLAWYQQTPGQAPRLLIYGASSRATGIPDRFSGTGYGTDFTLTISRLEPEDYGTYYCQQSSRTPWTFGQGTRVEIK |  |  | 96 | 0.17 |
| M205-D04 (Fab, V domains shown, Tested as Fab; printed HC runs into CH1; amber q written Q) VH: EVQLLESGGGLVQPGGSLRLSCAASGFTFSTYKMQWVRQAPGKGLEWVSSISPSGGPTNYADSVKGRFTISRDNSKNTLYLQMNSLRAEDTAVYYCARVARGIAARSRTSYFDYWGQGTLVTVSS VL: DIQMTQSPGTLSLSPGERATLSCRTSQFVNSNYLAWYQQTPGQAPRLLIYGASSRATGIPDRFSGTGYGTDFTLTISRLEPEDYGTYYCQQSSRTPWTFGQGTRVEIK |  |  | 91.5 | 0.4 |
| M208-E10 (Fab, V domains shown, Tested as Fab; printed HC runs into CH1) VH: EVQLLESGGGLVQPGGSLRLSCAASGFTFSHYLMTWVRQAPGKGLEWVSYISPSGGHTIYADSVKGRFTISRDNSKNTLYLQMNSLRAEDTAVYYCARVAQGISARSRTSYFDYWGQGTLVTVSS VL: DIQMTQSPGTLSLSPGERATLSCRTSQFVNSNYLAWYQQTPGQAPRLLIYGASSRATGIPDRFSGTGYGTDFTLTISRLEPEDYGTYYCQQSSRTPWTFGQGTRVEIK |  |  | 93.7 | 0.09 |
| M206-B10 (Fab, V domains shown, Tested as Fab; printed HC runs into CH1; amber q written Q) VH: EVQLLESGGGLVQPGGSLRLSCAASGFTFSQYLMAWVRQAPGKGLEWVSSIYPSGGWTKYADSVKGRFTISRDNSKNTLYLQMNSLRAEDTAVYYCARVARGIAARSRTSYFDYWGQGTLVTVSS VL: DIQMTQSPGTLSLSPGERATLSCRTSQFVNSNYLAWYQQTPGQAPRLLIYGASSRATGIPDRFSGTGYGTDFTLTISRLEPEDYGTYYCQQSSRTPWTFGQGTRVEIK |  |  | 94.7 | 0.3 |
| M206-F01 (Fab, V domains shown, Tested as Fab; printed HC runs into CH1) VH: EVQLLESGGGLVQPGGSLRLSCAASGFTFSGYMMVWVRQAPGKGLEWVSRISPSGGPTIYADSVKGRFTISRDNSKNTLYLQMNSLRAEDTAVYYCARVARGIAARSRTSYFDYWGQGTLVTVSS VL: DIQMTQSPGTLSLSPGERATLSCRTSQFVNSNYLAWYQQTPGQAPRLLIYGASSRATGIPDRFSGTGYGTDFTLTISRLEPEDYGTYYCQQSSRTPWTFGQGTRVEIK |  |  | 92.6 | 0.2 |
| M76-D01 (Fab, V domains shown, Printed HC runs from VH into the start of CH1 (printed end APSPKS)) VH: EVQLLESGGGLVQPGGSLRLSCAASGFTFSFYAMHWVRQAPGKGLEWVSGIVPSGGRTHYADSVKGRFTISRDNSKNTLYLQMNSLRAEDTAVYYCATDSSGSPNPLFDYWGQGTLVTVSS VL: DIVMTQTPPSLPVNPGEPASISCRSSQSLSDDGNTYLDWYLQRPGQSPQLLIHTLSYRASGVPDRFSGSGSGTDFTLKISRVEAEDVGVYYCMQGTHWPPTFGQGTKVEIK | < 100 | 11.2 ratio of ELISA signal on target to background (streptavidin) |  |  |
| M146-E12 (Fab, V domains shown, Printed HC runs from VH into the start of CH1) VH: EVQLLESGGGLVQPGGSLRLSCAASGFTFSRYIMHWVRQAPGKGLEWVSSISPSGGLTSYADSVKGRFTISRDNSKNTLYLQMNSLRAEDTAVYYCAREFENAYHYYYYGMDVWGQGTTVTVSS VL: DIQMTQSPSSLSASVGDRVTITCRASGDIGNALGWYQQKPGKAPRLLISDASTLQSGVPLRFSGSGSGTEFTLTISSLQPEDFATYYCLQGYNYPRTFGQGTKLEIR | 2.2 | 49.6 ratio of ELISA signal on target to background (streptavidin) |  |  |
| M142-H08 (Fab, V domains shown, Printed HC runs from VH into the start of CH1) VH: EVQLLESGGGLVQPGGSLRLSCAASGFTFSAYSMIWVRQAPGKGLEWVSYIRPSGGRTTYADSVKGRFTISRDNSKNTLYLQMNSLRAEDTAVYYCARGGLLLWFRELKSNYFDYWGQGTLVTVSS VL: DIQMTQSPSSLSAFVGDRVTITCRASQPIDNYLNWYHQKPGKAPKLLIYAASRLQSGVPSRLSGSGFGTDFTLTISSLQPEDFGNYYCQQSYTVPYTFGGGTKVEIR | 0.2 | 29.9 ratio of ELISA signal on target to background (streptavidin) |  |  |
| M145-D01 (Fab, V domains shown, Printed HC runs from VH into the start of CH1) VH: EVQLLESGGGLVQPGGSLRLSCAASGFTFSYYHMSWVRQAPGKGLEWVSVISPSGGSTKYADSVKGRFTISRDNSKNTLYLQMNSLRAEDTAVYYCARGGSSDYAWGSYRRPYYFDYWGQGTLVTVSS VL: DIQMTQSPATLSLSPGERATLSCRASQSVSSYLAWYQQKPGQAPRLLIYDASNRATGIPARFSGSGSGTDFTLTISSLEPEDFAVYYCQQRSNWPRGFTFGPGTKVDIK | 1.1 | 6.2 ratio of ELISA signal on target to background (streptavidin) |  |  |
| M161-C11 (Fab, V domains shown, Printed HC runs from VH into the start of CH1) VH: EVQLLESGGGLVQPGGSLRLSCAASGFTFSDYAMKWVRQAPGKGLEWVSSISSSGGVTQYADSVKGRFTISRDNSKNTLYLQMNSLRAEDTAVYYCAREEDYSSSWYSRRFDYYYGMDVWGQGTTVTVSS VL: QSALTQPPSVSVSPGQTASITCSGDKLGDKYVSWYQQRPGQSPVLVIYQDTKRPSGIPERFSGSNSGNTATLTISGTQAVDEADYYCQAWDSSTYVFGGGTKVTVL | 0.3 | 41.8 ratio of ELISA signal on target to background (streptavidin) |  |  |
| M145-D11 (Fab, V domains shown, Printed HC runs from VH into the start of CH1; also called 559A-M145-D11; 559A-M0145-D11) VH: EVQLLESGGGLVQPGGSLRLSCAASGFTFSHYRMSWVRQAPGKGLEWVSSIYPSGGRTVYADSVKGRFTISRDNSKNTLYLQMNSLRAEDTAVYYCAKDKFEWRLLFRGIGNDAFDIWGQGTMVTVSS VL: QSVLTQPPSVSVSPGQTASITCSGDKLGDKYTSWYQQRPGQSPVLVIYQDIKRPSGIPERFSGSNSGNTATLTISGTQAMDEADYYCQAWDSPNARVFGSGTKVTVL | 0.79 | 40 ratio of ELISA signal on target to background (streptavidin) |  |  |
| M110-C12 (Fab, V domains shown, Printed HC runs from VH into the start of CH1) VH: EVQLLESGGGLVQPGGSLRLSCAASGFTFSYYEMDWVRQAPGKGLEWVSGISSSGGHTAYADSVKGRFTISRDNSKNTLYLQMNSLRAEDTATYYCARERRSSSRARYYYGMDVWGQGTTVTVSS VL: DIQMTQSPLSLSVTPGEPASISCRSSLSLLHSNGYNYLDWYVQRPGQSPQLLMYLSSTRASGVPDRFSGSGSGTDFTLEISRVEAEDVGVYYCMQPLETPPTFGGGTKVEIK | < 100 | 2.4 ratio of ELISA signal on target to background (streptavidin) |  |  |
| M73-D06 (Fab, V domains shown, Printed HC runs from VH into the start of CH1) VH: EVQLLESGGGLVQPGGSLRLSCAASGFTFSRYEMYWVRQAPGKGLEWVSSISSSGGPTAYADSVKGRFTISRDNSKNTLYLQMNSLRAEDTAMYYCAKGTPKWELLLRSIYIENAFDIWGQGTMVTVSS VL: QSELTQPPSASETPGQRVTISCSGSSSNIGSNTVSWFQQLPGSAPRLLIYNDHRRPSGVPDRFSGSKSGTSASLVISGLQSQDEADYYCSAWDDSLNGVVFGGGTKLTVL | < 100 | 4 ratio of ELISA signal on target to background (streptavidin) |  |  |
| M137-E12 (Fab, V domains shown, Printed HC runs from VH into the start of CH1) VH: EVQLLESGGGLVQPGGSLRLSCAASGFTFSDYRMQWVRQAPGKGLEWVSVIVPSGGNTMYADSVKGRFTISRDNSKNTLYLQMNSLRAEDTAVYYCARGGPGSSIAARRAPTGYYGMDVWGQGTTVTVSS VL: QSVLIQPPSVSGIPGQRVTISCSGNNSNFGSNTVTWYQQLPGTAPKLLIYSDSRRPSGVPDRFSGSRSDTSASLAISGLQSEDEAEYHCAAWDDSLNGVFGGGTKLTVL | 79 | 4.5 ratio of ELISA signal on target to background (streptavidin) |  |  |
| M152-A12 (Fab, V domains shown, Printed HC runs from VH into the start of CH1) VH: EVQLLESGGGLVQPGGSLRLSCAASGFTFSPYFMGWVRQAPGKGLEWVSGIGPSGGSTTYADSVKGRFTISRDNSKNTLYLQMNSLRAEDTAVYYCAREGPPYSSGWYRGLRQYHFDYWGQGTLVTVSS VL: DIQMTQSPSSLSASVGDRVTITCRASQSISSYLSWYQQRPGKAPNLLIYAASSLQSGVPSRFSGSGSGTDFTLTISSLQPEDFATYYCQQSISIPRTFGQGTKVEVK | < 100 | 19 ratio of ELISA signal on target to background (streptavidin) |  |  |
